# Measurements taken from the supplement of paper PMC10567573.
# ± gives the standard deviation.
# Experiment: protein stability index of a GFP-peptide fusion (GPS, HEK-293T) (PSI 1-6); higher = more stable
# [1] = treatment: DMSO, c terminus: a fixed tail appended
# [2] = treatment: MLN4924 1 uM, 8 h, c terminus: a fixed tail appended
# 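Also: 24-mer peptide tiles fused after GFP, lentivirally expressed, FACS-sorted into six equal bins by GFP/DsRed ratio, decoded by Illumina sequencing, PSI is the read-weighted mean bin number.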
Sequence,protein stability index [1],protein stability index [2],"protein stability index (treatment: DMSO, c terminus: native)","protein stability index (treatment: MLN4924 1 uM, 8 h, c terminus: native)"
AAEEPGVRGLLASLFAFKSFRENW [C2CD2L],2.44 ± 0.19,2.65 ± 0.032,–,–
AALIYFAISITAIAKYSDGASKAA [CMTM3],3.49 ± 0.37,3.43 ± 0.62,–,–
AANHWVLPAAEFHGLWDSLVYDVE [TRIP13],2.62 ± 0.31,2.66 ± 0.22,–,–
AAQFTDFLIPMLEMVPEKRASAGE [SRPK2],3.6 ± 0.29,3.97 ± 0.29,–,–
AASLVTMGIVNLNIHMNFTHICRS [SLC2A12],3.46 ± 0.27,3.16 ± 0.21,–,–
AAVPDEIPPLEGDEDASRMEEVD [HSP90AB1],–,–,5.62 ± 0.27,5.68 ± 0.21
AAWLTLWVFGTSFLPFLLCAVLLS [FADS1],2.97 ± 0.53,3.15 ± 0.69,–,–
ACDNGLNVRGGKPDDITVLLSIVA [PPTC7],2.32 ± 0.59,2.16 ± 0.45,–,–
ADFGRLVNLQHLDLLNNKLVTLPV [LRRC59],2.3 ± 0.2,2.37 ± 0.21,–,–
ADWFMSLGVGLLTFASLETVGIYF [TMEM40],3.37 ± 0.22,3.04 ± 0.52,–,–
AEDAVYGRDGYDYDGYRLRVEFPR [SRSF1],3.37 ± 0.2,3.44 ± 0.37,–,–
AEIQEACCEFLKRQLDPSNCLGIR [KLHL20],2.52 ± 0.24,2.67 ± 0.34,–,–
AFARQAAQEPSAVPRAGPLTVNTE [FOXJ1],4.54 ± 0.17,4.49 ± 0.24,–,–
AFVLSSNSLKHCTELELFKATCRW [KLHL13],2.38 ± 0.55,2.23 ± 0.52,–,–
AGAEPLPRNGDQWHEIRQGRLPRI [WEE1],3.86 ± 0.47,4.24 ± 0.4,–,–
AGEGLVRSANGFPYREDEEGAFGE [MAP2],5.27 ± 0.18,5.24 ± 0.38,–,–
AGFTGSGPIQLWQFLLELLSDKSC [ETS2],2.27 ± 0.19,2.12 ± 0.41,–,–
AGVSLSTLEELLPPNTRVLRVLPN [PYCR3],2.79 ± 0.26,2.63 ± 0.23,–,–
AHDNSEELERARELKEKEATLCLE [ANKRD44],5.58 ± 0.21,5.45 ± 0.26,–,–
AHSSDVLENVFSSLTDDKYDVAMN [GOLPH3L],4.74 ± 0.21,4.7 ± 0.3,–,–
AIQQMGGQWLGGRQIRTNWATRKP [TIA1],2.8 ± 0.29,3.21 ± 0.44,–,–
AIQYALNIAFSEAEGARPLRENVP [MATN2],2.36 ± 0.21,2.08 ± 0.23,–,–

Sequence,protein stability index [1],protein stability index [2],"protein stability index (treatment: DMSO, c terminus: native)","protein stability index (treatment: MLN4924 1 uM, 8 h, c terminus: native)"
AKAADSPTRNDLESGLGHFSLRVH,3.19 ± 0.38,3.42 ± 0.48,–,–
AKLVPMGFTTATEFHQRRSEIIQI [RAD51],2.56 ± 0.6,1.98 ± 0.12,–,–
AKMGATKEEREDTPIQLQELLALE [TCAP],5.28 ± 0.24,5.15 ± 0.27,–,–
AKYCGHLYGLGSGSSYVQNGTGNA [CNOT7],2.8 ± 0.3,2.78 ± 0.28,–,–
ALEAAVHVQKLSQECLKQLAIKKQ [TRIM14],3.91 ± 0.16,3.54 ± 0.52,–,–
ALNSMLRRRFREKKKAIQEEEERD [YJU2B],3.57 ± 0.12,3.59 ± 0.1,–,–
AMEKFREDEGFLREEERPLPRRDF [KCNA3],4.74 ± 0.23,4.74 ± 0.17,–,–
AMPMQDIKMILKMVQLDSIEDLEV [PRAME],2.25 ± 0.22,2.25 ± 0.59,–,–
APEAKDGSSFSGRVFRVTFLMLAV [APMAP],3.47 ± 0.77,2.77 ± 0.75,–,–
APIDWIEEYTTGMADCILVNSQFT [ALG2],2.64 ± 0.25,2.81 ± 0.49,–,–
AQEQLRPQTPEPVEGRKHVDVQTE [RSPH3],5.41 ± 0.31,5.34 ± 0.24,–,–
ARDTVQVELIPEKKGLFLKHVEYE [SNX8],3.65 ± 0.39,3.73 ± 0.26,–,–
ARLKRSQSFGVASASSIKQILLEW [SMTNL2],2.33 ± 0.28,2.29 ± 0.17,–,–
ARRRQSAGPWPRPKGSLSMGPAPR [RASAL3],3.81 ± 0.25,4.03 ± 0.33,–,–
ARYTMPSSLLAPAKHLIASMLSKN [PLK2],2.51 ± 0.39,2.91 ± 0.72,–,–
ASASKFPSSGPVTPQPTALTFAKS [AUP1],4.33 ± 0.17,4.36 ± 0.38,–,–
ASGNATQTESGSEEVSSTVHIETF [C10orf62],5.11 ± 0.21,5.27 ± 0.2,–,–
ASSLNGGNIKGIEGHSPGNLPKFC [ZC2HC1A],3.56 ± 0.078,4.02 ± 0.15,–,–
AVATASRLGPYVLLEPEEGGRAYQ [TRIB3],3.79 ± 0.37,3.71 ± 0.32,–,–
AVDAGDPAVEACENRRKVLYQRAP [TCF25],4.62 ± 0.21,5.02 ± 0.22,–,–
AVETEGSGSRHPPWARGCGMFTFL [SLC2A12],2.11 ± 0.16,2.13 ± 0.28,–,–
AVQQVQRLPFLSSSNLSLDVLRGN [POMP],2.87 ± 0.24,2.98 ± 0.35,–,–

Sequence,protein stability index [1],protein stability index [2],"protein stability index (treatment: DMSO, c terminus: native)","protein stability index (treatment: MLN4924 1 uM, 8 h, c terminus: native)"
AVYFAEADDPTSGFSSIPDAFWWA [KCNA3],2 ± 0.16,2.12 ± 0.24,–,–
CCVDVKPISQEKIESERALISQCG [DUSP5],3.69 ± 0.26,3.63 ± 0.22,–,–
CEEEVFPLAMNYLDRFLSLEPVKK [CCND1],3.36 ± 0.16,3.3 ± 0.28,–,–
CEEVKMTVASEAKIQLSDSEAKSH [FAN1],5.46 ± 0.17,5.47 ± 0.074,–,–
CEHECVNADGSYLCQCHEGFALNP [MATN2],4.77 ± 0.15,4.8 ± 0.4,–,–
CENFPEMATYLRYVRRLDFFEKPD [CSNK1G3],2.21 ± 0.25,2.59 ± 0.51,–,–
CEQCGKCKCGECTAPRTLPSCLAC [SPRY1],4.34 ± 0.2,4.56 ± 0.22,–,–
CFKSVAKTPYDTSRRQEKSAGDAD [ELOA2],4.96 ± 0.3,5 ± 0.46,–,–
CGDGNTETHRAPDLVQWTRHMEAV [SOAT2],3.55 ± 0.044,3.48 ± 0.31,–,–
CHFQALGCRTTHSNQEVLQSCLLV [PYCR3],2.8 ± 0.23,2.67 ± 0.54,–,–
CITEDGRTVAVGDIVWGKIHGFPW [PWWP2B],2.49 ± 0.5,2.28 ± 0.45,–,–
CQYEALVENNRRDVEAWFNTQTEE [KRT36],2.86 ± 0.39,2.83 ± 0.35,–,–
CRNCINLQNEAQKRESFLKYKCLL [IQUB],2.08 ± 0.44,2.22 ± 0.26,–,–
CSFCKRAFPSGHLLDAHILEWHDS [ZNF511],5.19 ± 0.093,5.12 ± 0.24,–,–
CSQLLESSYFDSFQEAQIKRKARN [CDKL4],3.51 ± 0.56,3.528 ± 0.023,–,–
CTLGDPNKLPEGVPQPARMPYISD [KLHL20],4.13 ± 0.24,4.18 ± 0.15,–,–
CTSSWDKNLKIWNVHTGEFRNCGA [WDR88],2.17 ± 0.42,2.56 ± 0.31,–,–
CVRRRYSDFEWLKNELERDSKIVV [SNX12],2.7 ± 0.17,2.62 ± 0.49,–,–
DALEDSLEEVAVQQTGDDDEVDDF [PBXIP1],5.59 ± 0.28,5.67 ± 0.15,–,–
DARQLFVLAGAAEEGFMTAELAGV [GNAI1],2.75 ± 0.37,2.92 ± 0.31,–,–
DCGLNLKQRGYFFLDERLYCESHA [PDLIM4],2.43 ± 0.17,2.3 ± 0.44,–,–
